According to PMC2853134:

T1: TFIIB (UniProt P29055 1-345)
T1 sequence: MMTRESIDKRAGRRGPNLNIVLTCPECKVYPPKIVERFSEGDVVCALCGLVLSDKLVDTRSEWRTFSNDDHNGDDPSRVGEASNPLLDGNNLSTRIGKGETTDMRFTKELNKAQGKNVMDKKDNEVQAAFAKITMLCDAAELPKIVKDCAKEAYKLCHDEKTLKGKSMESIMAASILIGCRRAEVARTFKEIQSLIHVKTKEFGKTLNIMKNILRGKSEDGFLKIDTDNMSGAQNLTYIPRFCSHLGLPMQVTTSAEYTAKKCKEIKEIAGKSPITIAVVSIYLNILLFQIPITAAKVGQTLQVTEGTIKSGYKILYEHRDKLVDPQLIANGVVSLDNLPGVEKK

B1: B4-Del5 (structured_RNA)
RNA: GGGAGCUAAUGUAGGAUGCUGGGGUAGUCCAGCCCUAGAAUAAGCGCUAGUACUACAAGCUUCUGGAGCUCGGU
B2: MiniB4 (structured_RNA)
RNA: GGGAGCUAAUGUAGGAUGCUGGGGUAGUCCAGCCCUAGAAUAAGCGCUAGUACUACAAGCU
B3: B4-Del3 (structured_RNA)
RNA: GGGAGAAUUCAACUGCCAUCUAGGCAAAGAGCUAAUGUAGGAUGCUGGGGUAGUCCAGCCCUAGAAUAAGCGCUAGUACUACAAGCU

biological target: T1, TFIIB; test: EMSA

| Binder | binding result |
| --- | --- |
| B1 | binds |
| B2 | binds |
| B3 | binds |
